# Earlier results in article PMC6255930.
# Target: hemopexin (Homo sapiens) (UniProt P02790)
# UniProt P02790, sequence (P02790 24-462): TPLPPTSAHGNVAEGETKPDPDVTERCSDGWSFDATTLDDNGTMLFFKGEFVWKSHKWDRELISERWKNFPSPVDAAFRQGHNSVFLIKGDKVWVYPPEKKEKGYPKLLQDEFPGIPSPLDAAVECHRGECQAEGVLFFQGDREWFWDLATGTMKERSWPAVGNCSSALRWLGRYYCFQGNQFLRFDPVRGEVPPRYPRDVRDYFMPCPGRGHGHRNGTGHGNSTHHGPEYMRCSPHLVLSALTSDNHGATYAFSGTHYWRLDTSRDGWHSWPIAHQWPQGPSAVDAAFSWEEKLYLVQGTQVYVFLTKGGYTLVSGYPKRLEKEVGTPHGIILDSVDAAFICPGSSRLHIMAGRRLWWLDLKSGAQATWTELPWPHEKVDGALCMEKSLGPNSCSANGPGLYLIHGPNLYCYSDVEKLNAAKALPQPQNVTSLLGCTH
substance,measurement,value
LRP1 (from UniProt Q07954),Kd,4 nM
